This note sets out measurements from patent US20250145729A1 (DENALI THERAPEUTICS, published 2025).

For experiment [1], the target named is T1, circularly permuted human TfR apical domain (human).
T1 construct: TfR residues 326-379 stand N-terminal to 194-296, loop 297-325 deleted; also called huTfR Apical Domain
T1 chain: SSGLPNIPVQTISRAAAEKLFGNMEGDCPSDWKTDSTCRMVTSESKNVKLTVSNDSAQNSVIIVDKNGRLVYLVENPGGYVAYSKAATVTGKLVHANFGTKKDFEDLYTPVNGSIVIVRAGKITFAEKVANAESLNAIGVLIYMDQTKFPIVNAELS
Briefly: SPR, supernatant, anti-Fab capture. Here is the method:
(§1) Clones were expressed in HEK293 cells. Supernatants were captured for SPR by GE Healthcare anti-human Fab capture kit and the affinity to human and cyno TfR apical domain was measured (Table 30). The clones in Table 30 were bivalent and each TfR-binding Fc polypeptide also contained P329G and LALA mutations.
(Surface plasmon resonance follows binding to a sensor surface in real time, without labels.)

Experiment [2] addresses T2, circularly permuted cyno TfR apical domain (cynomolgus monkey).
T2 construct: same design as the human construct; also called cyTfR Apical Domain; cynomolgus TfR apical domain
T2 chain: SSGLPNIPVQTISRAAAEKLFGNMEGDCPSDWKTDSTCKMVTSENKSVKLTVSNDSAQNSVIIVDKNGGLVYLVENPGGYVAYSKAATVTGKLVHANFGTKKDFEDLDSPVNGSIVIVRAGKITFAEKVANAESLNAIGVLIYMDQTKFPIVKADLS
Briefly: SPR, supernatant, anti-Fab capture. Here is the method:
as §1

B1: 42.8.122 (Fc fusion)
chain: APEAAGGPSVFLFPPKPKDTLMISRTPEVTCVVVDVSHEDPEVKFNWYVDGVEVHNAKTKPREEQYNSTYRVVSVLTVLHQDWLNGKEYKCKVSNKALGAPIEKTISKAKGQPREPQVYTLPPSRDELTKNQVSLTCLVKGFYPSDIAVEWFYGAQKETNYKTTPPVLDSDGSFFLYSKLTVDKSRWQQGNLFACEVMHEALHNHYTYKLLSLSPGK
notes: bivalent; P329G+LALA
As a reminder, the Kd is a measure of binding affinity in units of concentration. For the molecule B1, the Kd in experiment [1] turned out to be 3.91 µM; in experiment [2], 9.84 µM.

B2: 42.8.142 (Fc fusion)
chain: APEAAGGPSVFLFPPKPKDTLMISRTPEVTCVVVDVSHEDPEVKFNWYVDGVEVHNAKTKPREEQYNSTYRVVSVLTVLHQDWLNGKEYKCKVSNKALGAPIEKTISKAKGQPREPQVYTLPPSRDELTKNQVSLTCLVKGFYPSDIAVEWFYGDSKLNNYKTTPPVLDSDGSFFLYSKLTVDKSRWQQGNLFACEVMHEALHNHYTYKLLSLSPGK
notes: bivalent; P329G+LALA
As for B2, the Kd in experiment [1] came to 0.665 µM; in experiment [2] it was 4.63 µM.

B3: 42.8.147 (Fc fusion)
chain: APEAAGGPSVFLFPPKPKDTLMISRTPEVTCVVVDVSHEDPEVKFNWYVDGVEVHNAKTKPREEQYNSTYRVVSVLTVLHQDWLNGKEYKCKVSNKALGAPIEKTISKAKGQPREPQVYTLPPSRDELTKNQVSLTCLVKGFYPSDIAVEWFYDGQKESNYKTTPPVLDSDGSFFLYSKLTVDKSRWQQGNLFACEVMHEALHNHYTYKLLSLSPGK
notes: bivalent; P329G+LALA
With B3, the Kd in experiment [1] came out at 3.51 µM; in experiment [2] it was 8.03 µM.

B4: 42.8.165 (Fc fusion)
chain: APEAAGGPSVFLFPPKPKDTLMISRTPEVTCVVVDVSHEDPEVKFNWYVDGVEVHNAKTKPREEQYNSTYRVVSVLTVLHQDWLNGKEYKCKVSNKALGAPIEKTISKAKGQPREPQVYTLPPSRDELTKNQVSLTCLVKGFYPSDIAVEWFYDASKESNYKTTPPVLDSDGSFFLYSKLTVDKSRWQQGNLFACEVMHEALHNHYTYKLLSLSPGK
notes: bivalent; P329G+LALA
As to B4, the Kd in experiment [1] worked out at 1.03 µM; in experiment [2] it was 4.46 µM.

B5: 42.8.176 (Fc fusion)
chain: APEAAGGPSVFLFPPKPKDTLMISRTPEVTCVVVDVSHEDPEVKFNWYVDGVEVHNAKTKPREEQYNSTYRVVSVLTVLHQDWLNGKEYKCKVSNKALGAPIEKTISKAKGQPREPQVYTLPPSRDELTKNQVSLTCLVKGFYPSDIAVEWFYDDSKETNYKTTPPVLDSDGSFFLYSKLTVDKSRWQQGNLFACEVMHEALHNHYTYKLLSLSPGK
notes: bivalent; P329G+LALA
Turning to B5, the results for the Kd in experiment [1] and in experiment [2] were 0.613 µM and 9.78 µM, respectively.

B6: 42.8.134 (Fc fusion)
chain: APEAAGGPSVFLFPPKPKDTLMISRTPEVTCVVVDVSHEDPEVKFNWYVDGVEVHNAKTKPREEQYNSTYRVVSVLTVLHQDWLNGKEYKCKVSNKALGAPIEKTISKAKGQPREPQVYTLPPSRDELTKNQVSLTCLVKGFYPSDIAVEWFYGDQKETNYKTTPPVLDSDGSFFLYSKLTVDKSRWQQGNLFACEVMHEALHNHYTYKLLSLSPGK
notes: bivalent; P329G+LALA
As for B6, the Kd was 1.24 µM in experiment [1] and 13.2 µM in experiment [2].

B7: 42.8.145 (Fc fusion)
chain: APEAAGGPSVFLFPPKPKDTLMISRTPEVTCVVVDVSHEDPEVKFNWYVDGVEVHNAKTKPREEQYNSTYRVVSVLTVLHQDWLNGKEYKCKVSNKALGAPIEKTISKAKGQPREPQVYTLPPSRDELTKNQVSLTCLVKGFYPSDIAVEWFYDGQKENNYKTTPPVLDSDGSFFLYSKLTVDKSRWQQGNLFACEVMHEALHNHYTYKLLSLSPGK
notes: bivalent; P329G+LALA
As to B7, the Kd in experiment [1] was determined as 1.01 µM; in experiment [2], 11.4 µM.

B8: 42.8.190 (Fc fusion)
chain: APEAAGGPSVFLFPPKPKDTLMISRTPEVTCVVVDVSHEDPEVKFNWYVDGVEVHNAKTKPREEQYNSTYRVVSVLTVLHQDWLNGKEYKCKVSNKALGAPIEKTISKAKGQPREPQVYTLPPSRDELTKNQVSLTCLVKGFYPSDIAVEWFYEGSKLNNYKTTPPVLDSDGSFFLYSKLTVDKSRWQQGNLFACEVMHEALHNHYTYKLLSLSPGK
notes: bivalent; P329G+LALA
With B8, the Kd worked out at 1.31 µM in experiment [1] and 9.78 µM in experiment [2].

B9: 42.8.161 (Fc fusion)
chain: APEAAGGPSVFLFPPKPKDTLMISRTPEVTCVVVDVSHEDPEVKFNWYVDGVEVHNAKTKPREEQYNSTYRVVSVLTVLHQDWLNGKEYKCKVSNKALGAPIEKTISKAKGQPREPQVYTLPPSRDELTKNQVSLTCLVKGFYPSDIAVEWFYDAQKLTNYKTTPPVLDSDGSFFLYSKLTVDKSRWQQGNLFACEVMHEALHNHYTYKLLSLSPGK
notes: bivalent; P329G+LALA
With B9, the Kd came to 1.14 µM in experiment [1] and 10.5 µM in experiment [2].

B10: 42.8.160 (Fc fusion)
chain: APEAAGGPSVFLFPPKPKDTLMISRTPEVTCVVVDVSHEDPEVKFNWYVDGVEVHNAKTKPREEQYNSTYRVVSVLTVLHQDWLNGKEYKCKVSNKALGAPIEKTISKAKGQPREPQVYTLPPSRDELTKNQVSLTCLVKGFYPSDIAVEWFYDAQKLNNYKTTPPVLDSDGSFFLYSKLTVDKSRWQQGNLFACEVMHEALHNHYTYKLLSLSPGK
notes: bivalent; P329G+LALA
Regarding B10, the results for the Kd in experiment [1] and in experiment [2] were 1.05 µM and 11.6 µM, respectively.

B11: 42.8.180 (Fc fusion)
chain: APEAAGGPSVFLFPPKPKDTLMISRTPEVTCVVVDVSHEDPEVKFNWYVDGVEVHNAKTKPREEQYNSTYRVVSVLTVLHQDWLNGKEYKCKVSNKALGAPIEKTISKAKGQPREPQVYTLPPSRDELTKNQVSLTCLVKGFYPSDIAVEWFYDDSKLSNYKTTPPVLDSDGSFFLYSKLTVDKSRWQQGNLFACEVMHEALHNHYTYKLLSLSPGK
notes: bivalent; P329G+LALA
Consider B11, for which the results for the equilibrium dissociation constant (Kd) in experiment [1] and in experiment [2] were 0.705 µM and 7.91 µM, respectively.

B12: 42.8.164 (Fc fusion)
chain: APEAAGGPSVFLFPPKPKDTLMISRTPEVTCVVVDVSHEDPEVKFNWYVDGVEVHNAKTKPREEQYNSTYRVVSVLTVLHQDWLNGKEYKCKVSNKALGAPIEKTISKAKGQPREPQVYTLPPSRDELTKNQVSLTCLVKGFYPSDIAVEWFYDASKETNYKTTPPVLDSDGSFFLYSKLTVDKSRWQQGNLFACEVMHEALHNHYTYKLLSLSPGK
notes: bivalent; P329G+LALA
With B12, the values for the Kd in experiment [1] and in experiment [2] were 0.832 µM and 7.45 µM, respectively.

B13: 42.8.186 (Fc fusion)
chain: APEAAGGPSVFLFPPKPKDTLMISRTPEVTCVVVDVSHEDPEVKFNWYVDGVEVHNAKTKPREEQYNSTYRVVSVLTVLHQDWLNGKEYKCKVSNKALGAPIEKTISKAKGQPREPQVYTLPPSRDELTKNQVSLTCLVKGFYPSDIAVEWFYEGQKLSNYKTTPPVLDSDGSFFLYSKLTVDKSRWQQGNLFACEVMHEALHNHYTYKLLSLSPGK
notes: bivalent; P329G+LALA
On to B13, for which the Kd amounted to 2.05 µM in experiment [1] and 22.2 µM in experiment [2].

B14: 42.8.140 (Fc fusion)
chain: APEAAGGPSVFLFPPKPKDTLMISRTPEVTCVVVDVSHEDPEVKFNWYVDGVEVHNAKTKPREEQYNSTYRVVSVLTVLHQDWLNGKEYKCKVSNKALGAPIEKTISKAKGQPREPQVYTLPPSRDELTKNQVSLTCLVKGFYPSDIAVEWFYGDSKETNYKTTPPVLDSDGSFFLYSKLTVDKSRWQQGNLFACEVMHEALHNHYTYKLLSLSPGK
notes: bivalent; P329G+LALA
For B14, the Kd in experiment [1] stood at 0.664 µM; in experiment [2], 5.23 µM.

B15: 42.8.196 (Fc fusion)
chain: APEAAGGPSVFLFPPKPKDTLMISRTPEVTCVVVDVSHEDPEVKFNWYVDGVEVHNAKTKPREEQYNSTYRVVSVLTVLHQDWLNGKEYKCKVSNKALGAPIEKTISKAKGQPREPQVYTLPPSRDELTKNQVSLTCLVKGFYPSDIAVEWFYEAQKLNNYKTTPPVLDSDGSFFLYSKLTVDKSRWQQGNLFACEVMHEALHNHYTYKLLSLSPGK
notes: bivalent; P329G+LALA
As for B15, the figures for the Kd in experiment [1] and in experiment [2] were 0.924 µM and 9.34 µM, respectively.

B16: 42.8.191 (Fc fusion)
chain: APEAAGGPSVFLFPPKPKDTLMISRTPEVTCVVVDVSHEDPEVKFNWYVDGVEVHNAKTKPREEQYNSTYRVVSVLTVLHQDWLNGKEYKCKVSNKALGAPIEKTISKAKGQPREPQVYTLPPSRDELTKNQVSLTCLVKGFYPSDIAVEWFYEGSKLTNYKTTPPVLDSDGSFFLYSKLTVDKSRWQQGNLFACEVMHEALHNHYTYKLLSLSPGK
notes: bivalent; P329G+LALA
For the molecule B16, the figures for the equilibrium dissociation constant (Kd) in experiment [1] and in experiment [2] were 0.598 µM and 8.14 µM, respectively.

B17: 42.8.129 (Fc fusion)
chain: APEAAGGPSVFLFPPKPKDTLMISRTPEVTCVVVDVSHEDPEVKFNWYVDGVEVHNAKTKPREEQYNSTYRVVSVLTVLHQDWLNGKEYKCKVSNKALGAPIEKTISKAKGQPREPQVYTLPPSRDELTKNQVSLTCLVKGFYPSDIAVEWFYGASKESNYKTTPPVLDSDGSFFLYSKLTVDKSRWQQGNLFACEVMHEALHNHYTYKLLSLSPGK
notes: bivalent; P329G+LALA
For B17, the Kd was determined as 0.858 µM in experiment [1] and 3.14 µM in experiment [2].

B18: 42.8.170 (Fc fusion)
chain: APEAAGGPSVFLFPPKPKDTLMISRTPEVTCVVVDVSHEDPEVKFNWYVDGVEVHNAKTKPREEQYNSTYRVVSVLTVLHQDWLNGKEYKCKVSNKALGAPIEKTISKAKGQPREPQVYTLPPSRDELTKNQVSLTCLVKGFYPSDIAVEWFYDDQKETNYKTTPPVLDSDGSFFLYSKLTVDKSRWQQGNLFACEVMHEALHNHYTYKLLSLSPGK
notes: bivalent; P329G+LALA
As for B18, the values for the Kd in experiment [1] and in experiment [2] were 1.15 µM and 11.9 µM, respectively.

B19: 42.8.193 (Fc fusion)
chain: APEAAGGPSVFLFPPKPKDTLMISRTPEVTCVVVDVSHEDPEVKFNWYVDGVEVHNAKTKPREEQYNSTYRVVSVLTVLHQDWLNGKEYKCKVSNKALGAPIEKTISKAKGQPREPQVYTLPPSRDELTKNQVSLTCLVKGFYPSDIAVEWFYEAQKENNYKTTPPVLDSDGSFFLYSKLTVDKSRWQQGNLFACEVMHEALHNHYTYKLLSLSPGK
notes: bivalent; P329G+LALA
As to B19, the figures for the Kd in experiment [1] and in experiment [2] were 1.6 µM and 13.3 µM, respectively.
